Measurements reported in patent publication US10603364B2, “Lysosomal targeting and uses thereof” (Shire Human Genetic Therapies, Inc., priority 2014, dated 2020).

How the values were obtained:
[1] = test system: SORT1 overexpressing cells; assay: Cellular uptake in Sortilin overexpressing cells (intracellular Naglu enzyme activity); type: cell-based; settings: absence of Neurotensin
Protocol: A cell line was established overexpressing SORT1, using standard technologies known in the art. […] After a specified period of time, the supernatant was removed and the cells were washed repeatedly. Then, cells were lysed and each sample was assayed for Naglu enzyme activity.

[2] = test system: SORT overexpressing cells; assay: Immunofluorescence microscopy of cellular entry and lysosomal targeting (Naglu / Lamp-1); type: cell-based
Protocol: Studies were carried out using immunofluorescence microscopy to evaluate cellular entry and lysosomal targeting. For these studies, SORT overexpressing cells were treated with vehicle control or Naglu-SPP and then fixed and prepared for staining. Both vehicle control (FIG. 6A) and Naglu-SPP (FIG. 6B) treated cells were stained using antibodies specific for human Naglu and Lamp-1, a lysosome-specific protein biomarker.

wild-type rats = assay: Naglu enzyme activity in liver and brain after intrathecal administration (biodistribution); type: in vivo; settings: 385 ug/animal
Protocol: To evaluate biodistribution of the SORT1-binding Naglu fusion proteins, an in vivo study was conducted using wild-type rats subjected to intrathecal administration of vehicle control (PBS), rhNaglu, Naglu-IGFII, Naglu-SPP, Naglu-SapDC or Naglu-tPRGN. Details of the experimental design are provide in Table 9 below. Previous experiments had shown that Naglu-IGFII but not rhNaglu penetrates into brain tissue and is targeted to lysosomes after intrathecal injection. Accordingly, rhNaglu and Naglu-IGFII were utilized in this study as negative and positive controls, respectively.
Rats were sacrificed either 4 or 24 hours post intrathecal administration of the respective fusion protein and total Naglu enzyme activity in the animals' liver and brain tissue was determined using a well-established enzyme activity assay (FIGS. 7A and B). Briefly, brain and liver tissue homogenates were prepared and incubated in the presence of a Naglu specific substrate, i.e., methylumbelliferyl-N-acetyl-α-D-glucosainide; accumulation of cleavage product was then measured by examining fluorescence intensity at 360/460 nm (excitation/emission) using a fluorescent plate reader.

Naglu KO mice [3] = assay: Naglu enzyme activity in tissues of Naglu KO mice after intrathecal administration; type: in vivo; settings: 520 mg/kg brain, 24 hrs post final dose
Protocol: (§1) To evaluate the in vivo activity of Naglu-SPP and its efficacy as a therapeutic for the treatment of lysosomal storage diseases, particularly San B, Naglu-SPP was administered to Naglu KO mice via intrathecal injection. Intrathecal administration of Naglu-IGFII served as a positive control. The experimental conditions used for this assay are described in Tables 10 and 11 below.
24 hours after intrathecal administration of each respective fusion protein, Naglu KO mice were sacrificed and Naglu enzyme activity in various tissues was assayed. Total Naglu activity was evaluated using a well-established enzyme activity assay. Briefly, tissue homogenate was incubated in the presence of the Naglu specific substrate methylumbelliferyl-N-acetyl-α-D-glucosainide, and accumulation of cleavage product was measured by examining fluorescence intensity at 360/460 nm (excitation/emission) using a fluorescent plate reader. […] This increase in enzyme activity was observed over the duration of the 3 week treatment period.

Naglu KO mice [4] = assay: Total glycosaminoglycan (GAG) in liver and brain, dimethylmethylene blue; type: in vivo; settings: intrathecal, 520 mg/kg brain; brain significant in 2× and 3× weekly groups
Protocol: as §1
The activity of Naglu-SPP and Naglu-IGFII in vivo was also evaluated by examining the intracellular accumulation of natural substrates of Naglu in treated mice. One such assay was designed to evaluate the total concentration of glycosaminoglycan (GAG) in liver (FIG. 11A) and brain (FIG. 11B) tissue of treated mice in accordance with de Jong et al. (Clin Chem 38(6):803-807, 1992). Briefly, liver tissue was homogenized and total GAG quantified using dimethylmethylene blue. Brain tissue was homogenized and then incubated with pronase and benzonase to break down protein and nucleic acid. Total GAG was then extracted by passing the brain homogenate through a DEAE column. The eluate was further buffer exchanged through a desalting column, and the total GAG content was quantified using dimethylmethylene blue. […] The reduction of total GAG amount in brain tissue was significant in the 2× weekly as well as the 3× weekly treatment groups.

Naglu KO mice [5] = assay: Heparan sulfate in brain by LC/MS; type: in vivo; settings: intrathecal, 520 mg/kg brain, 2× weekly and 3× weekly
Protocol: as §1
In a second assay, we evaluation the total amount of heparan sulfate in the brain of treated KO mice. […] To measure heparan sulfate in mouse brain tissue, a highly sensitive LC/MS method was applied (Lawrence et al, 2012, Nat Chem Biol. 2012 Jan. 8; 8(2):197-204). Briefly, total GAG from brain tissue was extracted by a DEAE column and a desalting column, and then dried and weighted. The extracted GAG was treated with heparin lyases that specifically release unique mono, di and tri saccharides of heparan sulfate, and the sample was then analyzed by LC/MS. The released saccharides were identified and quantified using commercially available saccharide standards of heparan sulfate degradation.

Naglu KO mice [6] = assay: Sanfillipo B specific biomarkers in brain by LC/MS; type: in vivo; settings: intrathecal, 520 mg/kg brain, especially 2× weekly and 3× weekly
Protocol: as §1
Using the same LC/MS technology as used for the quantification of heparin sulfate (see above), the presence of Sanfillipo B specific biomarkers in brains of treated KO mice were evaluated. Naglu deficiency causes the accumulation of certain heparin sulfate degradation products (presented in FIGS. 13A-C) which are natural substrates of Naglu. These biomarkers are the most relevant indications for Naglu deficiency.

Naglu KO mice [7] = assay: Immunohistochemical staining of Lamp-1, GFAP and Iba-1 in brain and liver; type: in vivo; settings: intrathecal
Protocol: as §1
The lysosomal targeting of Naglu-SPP and Naglu-IGFII was further examined by immunohistochemical analysis. Tissue samples were collected, fixed in 10% NBF and processed for paraffin embedding. For each tissue assayed, 5 μm paraffin sections was subjected to immunostaining using antibodies against lamp lysosomal associated membrane protein 1 (Lamp-1), glial fibrillary acidic protein (GFAP) and the ionized calcium-binding adapter molecule 1 (Iba-1).

B1: Naglu-SPP: Fusion protein of human Naglu and SORT1 propeptide (SPP) via GAG3 linker; SEQ ID NO:17 (full-length), SEQ ID NO:22 (protein)
chain: MEAVAVAAAVGVLLLAGAGGAAGDEAREAAAVRALVARLLGPGPAADFSVSVERALAAKPGLDTYSLGGGGAARVRVRGSTGVAAAAGLHRYLRDFCGCHVAWSGSQLRLPRPLPAVPGELTEATPNRYRYYQNVCTQSYSFVWWDWARWEREIDWMALNGINLALAWSGQEAIWQRVYLALGLTQAEINEFFTGPAFLAWGRMGNLHTWDGPLPPSWHIKQLYLQHRVLDQMRSFGMTPVLPAFAGHVPEAVTRVFPQVNVTKMGSWGHFNCSYSCSFLLAPEDPIFPIIGSLFLRELIKEFGTDHIYGADTFNEMQPPSSEPSYLAAATTAVYEAMTAVDTEAVWLLQGWLFQHQPQFWGPAQIRAVLGAVPRGRLLVLDLFAESQPVYTRTASFQGQPFIWCMLHNFGGNHGLFGALEAVNGGPEAARLFPNSTMVGTGMAPEGISQNEVVYSLMAELGWRKDPVPDLAAWVTSFAARRYGVSHPDAGAAWRLLLRSVYNCSGEACRGHNRSPLVRRPSLQMNTSIWYNRSDVFEAWRLLLTSAPSLATSPAFRYDLLDLTRQAVQELVSLYYEEARSAYLSKELASLLRAGGVLAYELLPALDEVLASDSRFLLGSWLEQARAAAVSEAEADFYEQNSRYQLTLWGPEGNILDYANKQLAGLVANYYTPRWRLFLEALVDSVAQGIPFQQHQFDKNVFQLEQAFVLSKQRYPSQPRGDTVDLAKKIFLKYYPRWVAGSWGAPGGGGGAAAAAGGGGGGAPGGGGGAAAAAGGGGGGAPGGGGGAAAAAGGGGGGAPQDRLDAPPPPAAPLPRWSGPIGVSWGLRAAAAGGAFPRGGRWRR
- Bmax of binding/uptake [1]: 1260 nmol/h/mg
- cellular internalization (intracellular Naglu activity) [1]: effectively internalized
- intracellular localization of Naglu fluorescence (co-localization with Lamp-1) [2]: localized predominantly within lysosomal vesicles
- rank of Naglu enzyme activity in brain among treatments (wild-type rats): highest activity
- Naglu enzyme activity in brain (wild-type rats; 4 or 24 hours post dose): markedly elevated levels
- Naglu activity in liver and brain tissue vs vehicle control (Naglu KO mice [3]): dramatic increase
- total GAG concentration in liver and brain tissue vs vehicle control (Naglu KO mice [4]): significant reduction
- total amount of heparan sulfate accumulation in brain tissue (Naglu KO mice [5]): strong reduction
- accumulation of three GAG cleavage products (San B biomarkers) in brain (Naglu KO mice [6]): dramatic decrease
- Lamp-1 immunostaining in brain (cerebral cortex, cerebellum, thalamus, striatum, white matter) (Naglu KO mice [7]; 2× weekly and 3× weekly): decrease
- Lamp-1 immunoreactivity in liver (Naglu KO mice [7]; three weekly deliveries): reduced significantly
- GFAP staining in cerebral cortex and cerebellum (astrocytes) (Naglu KO mice [7]; three weekly injections): reduced signal
- Iba-1 staining in cerebral cortex and cerebellum (microglial cells) (Naglu KO mice [7]; three weekly injections): microglial cells are reduced in size and have a smaller number of processes
